Experimental findings from paper PMC9621694 are described below.

This assay deals with purified trimeric native F protein of respiratory syncytial virus (respiratory syncytial virus) (UniProt P03420). Description: SPR; normalized maximum SPR signal of purified scaffolds, point mutants and RSV-F at various concentrations of hRSV90 antibody, sigmoid fits. (In general: In SPR one partner is held on a chip, and binding of the other changes the refractive index at the surface.)
purified trimeric native F protein of respiratory syncytial virus (respiratory syncytial virus), sequence (P03420 138-513): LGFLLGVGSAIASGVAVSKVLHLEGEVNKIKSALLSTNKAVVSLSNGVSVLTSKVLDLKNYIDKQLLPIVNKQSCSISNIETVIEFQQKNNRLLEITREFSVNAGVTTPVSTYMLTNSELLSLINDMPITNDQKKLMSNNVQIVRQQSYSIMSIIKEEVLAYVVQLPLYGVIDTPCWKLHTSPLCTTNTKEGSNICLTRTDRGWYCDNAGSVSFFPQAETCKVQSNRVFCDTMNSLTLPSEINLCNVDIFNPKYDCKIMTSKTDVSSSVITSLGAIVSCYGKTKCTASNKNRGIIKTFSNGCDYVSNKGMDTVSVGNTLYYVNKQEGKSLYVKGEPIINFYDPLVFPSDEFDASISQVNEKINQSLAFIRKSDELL

For the substance neutralizing antibody hRSV90, the equilibrium dissociation constant (Kd) was 23 nM. This counts as double-digit nanomolar.

As a reminder, the Kd is the concentration at which binding is half-saturated. Read a low Kd as a tighter complex.
